# Data from PMC11066524, “The molecular determinants of classical pathway complement inhibition by OspEF-related proteins of Borrelia burgdorferi” (The Journal of Biological Chemistry, 2024).
# Residue numbers refer to the chain shown, from its start.
# T1: full-length activated human C1s (human, UniProt P09871 16-437; P09871 438-688)
# T1 construct: also called active C1s
# T1 sequence 1: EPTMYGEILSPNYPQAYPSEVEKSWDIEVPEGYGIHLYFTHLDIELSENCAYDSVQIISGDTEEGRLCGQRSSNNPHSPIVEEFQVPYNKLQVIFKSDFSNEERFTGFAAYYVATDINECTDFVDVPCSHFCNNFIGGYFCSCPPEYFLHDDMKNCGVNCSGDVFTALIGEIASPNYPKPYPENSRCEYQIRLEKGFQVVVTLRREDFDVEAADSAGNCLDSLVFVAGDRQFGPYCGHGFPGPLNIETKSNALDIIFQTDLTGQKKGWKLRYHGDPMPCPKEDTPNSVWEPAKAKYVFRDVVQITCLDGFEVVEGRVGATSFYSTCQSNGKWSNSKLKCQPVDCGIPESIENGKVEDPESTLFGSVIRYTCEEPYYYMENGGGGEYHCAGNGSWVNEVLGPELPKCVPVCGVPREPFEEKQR
# T1 sequence 2: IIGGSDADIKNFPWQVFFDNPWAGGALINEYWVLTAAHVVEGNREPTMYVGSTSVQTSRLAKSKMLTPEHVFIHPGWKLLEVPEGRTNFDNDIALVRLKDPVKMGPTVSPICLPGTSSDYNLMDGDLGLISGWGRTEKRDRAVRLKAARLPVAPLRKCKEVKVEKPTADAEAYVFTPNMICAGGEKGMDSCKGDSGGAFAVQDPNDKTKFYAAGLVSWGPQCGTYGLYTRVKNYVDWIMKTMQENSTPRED
# T2: activated full-length human C1r (human, UniProt P00736 18-705)
# T2 construct: as far as I recall it is cleaved at Arg463-Ile464 of P00736 and lacks the signal peptide (1-17); also called active C1r
# T2 sequence: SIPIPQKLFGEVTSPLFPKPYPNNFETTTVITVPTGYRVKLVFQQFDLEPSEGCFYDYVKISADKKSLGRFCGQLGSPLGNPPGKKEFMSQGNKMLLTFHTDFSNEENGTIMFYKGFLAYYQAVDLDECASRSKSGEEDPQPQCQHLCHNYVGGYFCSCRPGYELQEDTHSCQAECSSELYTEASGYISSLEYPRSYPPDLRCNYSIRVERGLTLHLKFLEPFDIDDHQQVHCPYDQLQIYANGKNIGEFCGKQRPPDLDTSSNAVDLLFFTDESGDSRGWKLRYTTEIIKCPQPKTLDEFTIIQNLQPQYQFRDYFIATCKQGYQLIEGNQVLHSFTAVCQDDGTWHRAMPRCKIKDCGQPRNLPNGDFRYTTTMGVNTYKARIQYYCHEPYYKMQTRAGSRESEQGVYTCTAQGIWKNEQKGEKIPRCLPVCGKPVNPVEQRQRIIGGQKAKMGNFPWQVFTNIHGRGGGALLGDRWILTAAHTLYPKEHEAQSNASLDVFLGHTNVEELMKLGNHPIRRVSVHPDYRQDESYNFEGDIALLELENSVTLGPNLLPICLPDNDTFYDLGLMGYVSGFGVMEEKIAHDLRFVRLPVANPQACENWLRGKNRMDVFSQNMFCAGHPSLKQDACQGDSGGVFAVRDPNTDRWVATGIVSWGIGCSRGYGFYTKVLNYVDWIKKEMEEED
# B1: ElpQA4 (domain or fragment, Borrelia burgdorferi strain B31, UniProt Q9S035 181-343, looked up)
# chain: REEAEQQKRQQEEEEKRQVDNQIKTLIAKIDEINENIDVIKWQTTVGPQGVIDRITGPVYDDFTNGNNSIRATWEGLAAESADEGLGKLLKELSDARDALRTKLNEGNKPYTGYEEPKLKESVNVSEIKEDLEKLKSKLEEVKKYLKDSSKFEEIKGYISDSQ
# notes: Synthetic E. coli codon-optimised gene fragment cloned BamHI/NotI into pT7HMT
# B2: ElpQ_(181-343) (domain or fragment)
# chain: B1 chain with A72E, A78E, A79E, A82E
# notes: pT7HMT adds, as far as I recall, an N-terminal His-Myc tag with a TEV site that is usually cleaved; also called C-terminal truncation construct of ElpQ
# B3: ElpQ_(181-340) (domain or fragment)
# chain: REEAEQQKRQQEEEEKRQVDNQIKTLIAKIDEINENIDVIKWQTTVGPQGVIDRITGPVYDDFTNGNNSIRETWEGLEEESEDEGLGKLLKELSDARDALRTKLNEGNKPYTGYEEPKLKESVNVSEIKEDLEKLKSKLEEVKKYLKDSSKFEEIKGYIS
# notes: also called ElpQ truncation lacking residues 341 to 343
# B4: ElpQ_(Δ290-296) (domain or fragment, Borrelia burgdorferi strain B31, UniProt Q9S035 181-343, looked up)
# chain: REEAEQQKRQQEEEEKRQVDNQIKTLIAKIDEINENIDVIKWQTTVGPQGVIDRITGPVYDDFTNGNNSIRETWEGLEEESEDEGLGKLLKELSDARDALRTKLNEGNKPKLKESVNVSEIKEDLEKLKSKLEEVKKYLKDSSKFEEIKGYISDSQ
# notes: Synthetic E. coli codon-optimised gene fragment cloned BamHI/NotI into pT7HMT; also called Δ290 to 296
# B5: full-length ElpQ (ElpQ_(19-343)) (natural protein)
# chain: KNFATGKDIKQNSEGKIKGFVNKILDPVKDKIASSGTKVDEVAKKLQEEEKEELMQGDDPNGSGINPPPVLPENIHNNALVLKAIEQSDGQQEKKVEEAEAKVEENKEKQENTEENIKEKEIIDEQNKQELAKAKEEEQQKEQKRHQEEQQRKAKAEKEKREREEAEQQKRQQEEEEKRQVDNQIKTLIAKIDEINENIDVIKWQTTVGPQGVIDRITGPVYDDFTNGNNSIRETWEGLEEESEDEGLGKLLKELSDARDALRTKLNEGNKPYTGYEEPKLKESVNVSEIKEDLEKLKSKLEEVKKYLKDSSKFEEIKGYISDSQ
# notes: ElpQ, outer surface lipoprotein of the OspEF-related protein family, Borrelia burgdorferi strain B31, UniProt Q9S035, residues 19-343 (325 residues); also called Apo-ElpQ_(19-343)
# Target: T1, full-length activated human C1s
# Assay: SPR; steady-state fit (K_(D, ss)), 1:1 model, of the same injection series as a2; ElpQ proteins amine-coupled to a CMD200 chip; activated C1s or C1r 0-200 nM; HBS-T Ca2+ (10 mM Hepes pH 7.3, 140 mM NaCl, 0.005% Tween-20, 5 mM CaCl2)
# Conditions: both partners purified
row,Binder,Kd [nM]
1,B1,~464
2,B2,39.3
3,B3,55.6
4,B4,~665

# Target: T2, activated full-length human C1r
# Assay: as above
# Conditions: both partners purified
row,Binder,Kd [nM]
1,B2,221
2,B3,181

# Target: T1, full-length activated human C1s
# Assay: HDX-MS; ElpQ_(19-343) alone or with a 3-fold molar excess of full-length activated C1s, on ice ~20 min before analysis; exchange 0 s to 2 h at 20 °C in D2O buffer (25 mM phosphate pD 7.5, 0.1 M NaCl); triplicate
# Conditions: both partners purified
row,Binder,binding result
1,B5,binds

# Target: T1, full-length activated human C1s
# Assay: SPR; kinetic fit (K_(D, kin)), 1:1 Langmuir; ElpQ/ElpB proteins amine-coupled to a CMD200 chip; activated C1s or C1r injected 0-200 nM, multicycle; HBS-T Ca2+ (10 mM Hepes pH 7.3, 140 mM NaCl, 0.005% Tween-20, 5 mM CaCl2); 30 μl/min; association 120 s (C1r 480 s), dissociation 180 s
# Conditions: both partners purified
Binder,Kd [nM],koff [s⁻¹],kon [M⁻¹ s⁻¹]
B1,173,0.0103,60100
B2,14.5,0.00683,477000
B3,20.8,0.00794,425000
B4,~623,0.00746,22500

# Target: T2, activated full-length human C1r
# Assay: as above
# Conditions: both partners purified
Binder,koff [s⁻¹],kon [M⁻¹ s⁻¹],Kd [nM]
B1,0.493,2440,–
B2,0.00316,21700,151
B3,0.00277,26400,113
